Measured values from patent US11866736B2, “Protein prostheses for mitochondrial diseases or conditions” (The General Hospital Corporation, priority 2015, dated 2024).
Numbering of substitutions follows the chain as printed. Names and notes keep the numbering of the source.

B1: LbNOX: water-forming NADH oxidase endogenous to Lactobacillus brevis; tested with C-terminal FLAG tag (protein, listed as Lactobacillus brevis)
chain: KVTVVGCTHAGTFAIKQILAEHPDAEVTVYERNDVISFLSCGIALYLGGKVADPQGLFYSSPEELQKLGANVQMNHNVLAIDPDQKTVTVEDLTNHAQTTESYDKLVMTSGSWPIVPKIPGIDSDRVKLCKNWAHAQALIEDAKEAKRITVIGAGYIGAELAEAYSTTGHDVTLIDAMARVMPKYFDADFTDVIEQDYRDHGVQLALGETVESFTDSATGLTIKTDKNSYETDLAILCIGFRPNTDLLKGKVDMAPNGAIITDDYMRSSNPDIFAAGDSAAVHYNPTHQNAYIPLATNAVRQGILVGKNLVKPTVKYMGTQSSSGLALYDRTIVSTGLTLAAAKQQGLNAEQVIVEDNYRPEFMPSTEPVLMSLVFDPDTHRILGGALMSKYDVSQSANTLSVCIQNENTIDDLAMVDMLFQPNFDRPFNYLNILAQAAQAKVAQSVNA
modifications: C-terminal FLAG tag
B2: TPNOX: NADPH-specific quintuple mutant (G159A/D177A/A178R/M179S/P184R) of LbNOX (protein)
chain: B1 chain with G158A, D176A, A177R, M178S, P183R

How the values were obtained:
[1] = Enzyme-monitored turnover (stopped flow, FAD absorbance at 455 nm); assay type: biochemical
Protocol: The experiment was carried out by monitoring the time dependence of FAD oxidation state via its absorbance at 455 nm in 50 mM NaPi pH7.5 150 mM NaCl buffer at 4° C. Air-saturated LbNOX (1.9, 2.9, 5.6 and 9.18 μM FAD active sites after mixing) and air-saturated solution of NADH (2 mM after mixing). The traces at 455 nm are treated as records of the rate of catalysis as a continuous function of the concentration of O2 (the limiting substrate).
The reaction of LbNOX with oxygen was studied by the enzyme-monitored turnover method (Gibson, et al., J. Biol. Chem., 239:3927, 1964; and Tapley, et al., J. Biol. Chem., 282:10263, 2007). Rapid reaction studies were carried out at 4° C. in a SX20 stopped flow instrument (Applied Photophysics, UK) equipped with a diode array detector. To follow the redox state of the FAD cofactor, LbNOX enzyme (1.9, 2.9, 5.6 and 9.18 μM FAD active sites after mixing) was mixed with NADH (2 mM after mixing), both prepared in air-saturated assay buffer (50 mM Na2HPO4, pH 7.5, 150 mM NaCl) and absorbance at 455 nm was monitored over time. Solubility of oxygen at 4° C. was calculated from oxygen solubility table at corresponding salinity of the assay buffer which is ˜380 μM. Results represent (n=3) independent experiments. The traces at 455 nm reflect the conversion of oxidized to reduced enzyme forms and are treated as previously described (Gibson, et al., J. Biol. Chem., 239:3927, 1964), where the area under the curve is proportional to the concentration of oxygen which is a limiting substrate under these conditions. […] We therefore estimated that apparent KM for O2 to be less than 2 μM. Based on the enzyme concentration (1.9-9.18 μM) and time it took to consume O2 (8.12-1.67 sec), apparent kcat can be calculated (FIG. 7).

[2] = Enzymatic assay of NAD(P)H oxidase activity, NADH as substrate (absorbance at 340); assay type: biochemical
Protocol: FIGS. 1A-1E illustrate the biochemical properties of LbNOX with a C-terminal FLAG tag and a cleavable N-terminal hexahistidine (Hisx6) tag produced by overexpression in E. coli. Purified LbNOX-FLAG has a yellow color and a UV-visible absorption spectrum (λmax=371 and 444 nm) similar to other FAD-containing enzymes, which can be reduced upon the addition of sodium dithionite (FIG. 1B). (FIG. 1A) Reaction catalyzed by LbNOX. (FIG. 1B) UV-visible spectrum of purified LbNOX. Protein (82.8 μM FAD active sites) in 50 mM NaPi pH 7.5, 150 mM NaCl after purification in oxidized form (solid line) and after addition of excess of sodium dithionite, reduced form (dashed line). Inset: SDS-PAGE of purified LbNOX. (FIG. 1C) Simultaneous measurement of NADH and oxygen consumption by LbNOX as assayed in 50 mM NaPi pH 7.5, 150 mM NaCl at 28° C. NADH (500 μM) and LbNOX (1.8 μg) were added as indicated by arrows. (FIG. 1D) Michaelis-Menten analysis of the NAD(P)H oxidase activity of recombinant LbNOX. Inset: values for Vmax and KM for NADH represent the mean±S.D. (error bars) from four independent experiments. (FIG. 1E) The crystal structure of LbNOX. The FAD in stick representation and bound oxygen in red spheres. Inset: The substrate selectivity loops of LbNOX (containing Asp177, Ala178, and Pro184) and glutathione reductase—NADPH complex (containing Arg198 and Arg204) (PDB ID 1GET). Backbone atoms of NAD(P)H binding domains of each protein (residues 147-247 of LbNOX and 167-268 of glutathione reductase) were superimposed using the least square algorithm of COOT. Note that Arg198 and Arg204 of glutathione reductase, which tightly bind the phosphate moiety of NADPH, are replaced in LbNOX with Ala178 and Pro184, respectively. Negatively charged side chain of Asp177 in LbNOX replaces the neutral Val197 of glutathione reductase.
Recombinant LbNOX activity was monitored by following the decrease of the absorbance of NAD(P)H at […] using CARY® 100 spectrophotometer (Agilent, CA). A typical reaction mixture contained 2 μM FAD in 0.5 ml of the assay buffer (50 mM Na2HPO4, pH 7.5, 150 mM NaCl) and was incubated for 4 min at 37° C. before NAD(P)H (2-600 μM) and enzyme (0.08-6.8 μg) were added. Extinction coefficient (ε340=6.2 mM^−1 cm^−1) was used to calculate NAD(P)H oxidase activity. Simultaneous monitoring of oxygen consumption and NADH fluorescence was performed using a custom-built fluorimeter. In our setup the REDEYE™ oxygen patch (OceanOptics) was installed in a cuvette and the optical probe was connected to a fluorimeter. Oxygen causes quenching of the REDEYE™ patch fluorescence which allows to monitor the partial pressure of oxygen. In our experiments 0.5 ml of the assay buffer was preincubated at 28° C. before NADH (40-1500 μM) and LbNOX (0.1-2 μg) were added.

HeLa cells = experiment: Tolerability of doxycycline-inducible expression in HeLa cells; assay type: cell-based, human
From the text: Lentiviral infection was used to generate HeLa cells that expressed untargeted or mitochondria-targeted TPNOX (referred to as TPNOX and mitoTPNOX, respectively) under the control of a doxycycline-inducible promoter (TRE3G) (FIG. 16A).

| Molecule | apparent KM for O2, fold lower than the concentration of oxygen in human venous blood [1] | apparent KM for O2 expressed as % O2 ([1]; estimated from enzyme-monitored turnover) | Km ([1]; estimated from enzyme-monitored turnover, 4° C., read-out: apparent KM for O2) | substrate selectivity NADH vs NADPH [2] | specific activity ([2]; after enterokinase cleavage of N-terminal Hisx6 tag) | specific activity ([2]; fully reconstituted LbNOX (holoLbNOX), peak from Source 15Q, N-terminal Hisx6 tag present) | Km ([2]; recombinant enzyme, read-out: apparent KM for NADH) | tolerability of expression (cell morphology, viability, proliferation) (HeLa cells) | kcat with NADH [2] |
| --- | --- | --- | --- | --- | --- | --- | --- | --- | --- |
| B1 | more than 10 fold | ~0.17 % O2 | < 2 µM | selectively oxidizes NADH over NADPH | ~750 µmol/min/mg | ~550 µmol/min/mg | 69 ± 3 µM | – | – |
| B2 | – | – | – | – | – | – | – | safely tolerated | 3.2 ± 0.2 s⁻¹ |
